Results on three molecules are retold here after publication PMC4545946, “Human Papillomavirus Type 18 cis-Elements Crucial for Segregation and Latency”.

Holding throughout (settings): protein: recombinant; tags: N-terminal Strep-II; chain copies: 2; label: 32P 5' end
For data set [1], the target named is T1, HPV-18 E2 (N-terminal Strep-II tag) (Human papillomavirus type 18, UniProt P06790 1-365). The experiment in a line: EMSA; two dimers, cooperative; k12 order 1-Linker < 3-Linker < 2-Linker (values only in Fig 4D); >95% probe bound at 1.65 uM E2. (In general: Mobility shift assays separate free from complexed probe on a gel.)
T1 sequence (P06790 whole entry): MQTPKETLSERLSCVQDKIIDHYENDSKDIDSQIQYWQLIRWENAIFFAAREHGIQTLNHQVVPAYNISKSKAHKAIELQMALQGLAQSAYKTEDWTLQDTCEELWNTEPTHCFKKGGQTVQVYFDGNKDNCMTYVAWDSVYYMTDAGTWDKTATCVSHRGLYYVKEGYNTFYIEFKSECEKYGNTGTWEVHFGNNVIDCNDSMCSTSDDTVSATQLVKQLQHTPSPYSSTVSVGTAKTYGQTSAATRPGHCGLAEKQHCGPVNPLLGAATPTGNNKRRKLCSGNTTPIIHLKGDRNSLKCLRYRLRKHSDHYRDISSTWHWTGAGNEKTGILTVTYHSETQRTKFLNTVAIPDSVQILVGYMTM
Data set [2] concerns the target T1, HPV-18 E2 (N-terminal Strep-II tag). The experiment in a line: EMSA; two dimers, cooperative; intermediate k12 (value only in Fig 4D).
Data set [3] has the same target. Nature of the data set: EMSA; two dimers, cooperative; highest k12 (value only in Fig 4D).

B1: 1-Linker (wt, E2BS #1 and #2 with CGGG spacer) (dsDNA)
DNA 1: ACCGAAAACGGTCGGGACCGAAAACGGT
DNA 2: ACCGTTTTCGGTCCCGACCGTTTTCGGT
Regarding B1, in data set [1], the binding result was “binds”.

B2: 3-Linker (E2BS #1 and #2, 12 bp spacer) (dsDNA)
DNA 1: ACCGAAAACGGTCGGGCGGGCGGGACCGAAAACGGT
DNA 2: ACCGTTTTCGGTCCCGCCCGCCCGACCGTTTTCGGT
As to B2, the binding result in data set [2] is listed as “binds”.

B3: 2-Linker (E2BS #1 and #2, 8 bp spacer) (dsDNA)
DNA 1: ACCGAAAACGGTCGGGCGGGACCGAAAACGGT
DNA 2: ACCGTTTTCGGTCCCGCCCGACCGTTTTCGGT
Regarding B3, the binding result in data set [3] is “binds”.
